According to IntAct's records for PubMed 24125847:

B1: Sarcoplasmic reticulum histidine-rich calcium-binding protein (Homo sapiens), P23327 (parent)
chain: MGHHRPWLHASVLWAGVASLLLPPAMTQQLRGDGLGFRNRNNSTGVAGLSEEASAELRHHLHSPRDHPDENKDVSTENGHHFWSHPDREKEDEDVSKEYGHLLPGHRSQDHKVGDEGVSGEEVFAEHGGQARGHRGHGSEDTEDSAEHRHHLPSHRSHSHQDEDEDEVVSSEHHHHILRHGHRGHDGEDDEGEEEEEEEEEEEEASTEYGHQAHRHRGHGSEEDEDVSDGHHHHGPSHRHQGHEEDDDDDDDDDDDDDDDDVSIEYRHQAHRHQGHGIEEDEDVSDGHHHRDPSHRHRSHEEDDNDDDDVSTEYGHQAHRHQDHRKEEVEAVSGEHHHHVPDHRHQGHRDEEEDEDVSTERWHQGPQHVHHGLVDEEEEEEEITVQFGHYVASHQPRGHKSDEEDFQDEYKTEVPHHHHHRVPREEDEEVSAELGHQAPSHRQSHQDEETGHGQRGSIKEMSHHPPGHTVVKDRSHLRKDDSEEEKEKEEDPGSHEEDDESSEQGEKGTHHGSRDQEDEEDEEEGHGLSLNQEEEEEEDKEEEEEEEDEERREERAEVGAPLSPDHSEEEEEEEEGLEEDEPRFTIIPNPLDRREEAGGASSEEESGEDTGPQDAQEYGNYQPGSLCGYCSFCNRCTECESCHCDEENMGEHCDQCQHCQFCYLCPLVCETVCAPGSYVDYFSSSLYQALADMLETPEP
partner: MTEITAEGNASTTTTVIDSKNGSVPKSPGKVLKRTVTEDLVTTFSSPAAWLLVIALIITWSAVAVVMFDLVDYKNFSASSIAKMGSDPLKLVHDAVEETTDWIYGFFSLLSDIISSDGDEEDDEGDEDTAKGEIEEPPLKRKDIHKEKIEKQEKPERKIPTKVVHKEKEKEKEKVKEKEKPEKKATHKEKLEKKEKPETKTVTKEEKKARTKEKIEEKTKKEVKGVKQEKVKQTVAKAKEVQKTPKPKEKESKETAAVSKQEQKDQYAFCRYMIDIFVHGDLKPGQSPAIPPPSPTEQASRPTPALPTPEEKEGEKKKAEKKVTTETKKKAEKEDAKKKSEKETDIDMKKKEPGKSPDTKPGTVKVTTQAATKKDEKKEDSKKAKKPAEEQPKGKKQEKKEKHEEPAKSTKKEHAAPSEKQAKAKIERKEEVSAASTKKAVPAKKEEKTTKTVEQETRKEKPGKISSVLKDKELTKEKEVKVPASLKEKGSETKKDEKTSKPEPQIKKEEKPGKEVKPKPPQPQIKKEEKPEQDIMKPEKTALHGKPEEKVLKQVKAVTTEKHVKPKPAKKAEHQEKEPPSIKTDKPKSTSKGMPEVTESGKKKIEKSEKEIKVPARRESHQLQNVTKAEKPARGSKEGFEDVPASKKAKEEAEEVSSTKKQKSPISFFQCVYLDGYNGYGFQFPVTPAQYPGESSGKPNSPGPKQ
B2: Sarcoplasmic reticulum histidine-rich calcium-binding protein (Homo sapiens), P23327 (parent)
chain: B1 chain
partner: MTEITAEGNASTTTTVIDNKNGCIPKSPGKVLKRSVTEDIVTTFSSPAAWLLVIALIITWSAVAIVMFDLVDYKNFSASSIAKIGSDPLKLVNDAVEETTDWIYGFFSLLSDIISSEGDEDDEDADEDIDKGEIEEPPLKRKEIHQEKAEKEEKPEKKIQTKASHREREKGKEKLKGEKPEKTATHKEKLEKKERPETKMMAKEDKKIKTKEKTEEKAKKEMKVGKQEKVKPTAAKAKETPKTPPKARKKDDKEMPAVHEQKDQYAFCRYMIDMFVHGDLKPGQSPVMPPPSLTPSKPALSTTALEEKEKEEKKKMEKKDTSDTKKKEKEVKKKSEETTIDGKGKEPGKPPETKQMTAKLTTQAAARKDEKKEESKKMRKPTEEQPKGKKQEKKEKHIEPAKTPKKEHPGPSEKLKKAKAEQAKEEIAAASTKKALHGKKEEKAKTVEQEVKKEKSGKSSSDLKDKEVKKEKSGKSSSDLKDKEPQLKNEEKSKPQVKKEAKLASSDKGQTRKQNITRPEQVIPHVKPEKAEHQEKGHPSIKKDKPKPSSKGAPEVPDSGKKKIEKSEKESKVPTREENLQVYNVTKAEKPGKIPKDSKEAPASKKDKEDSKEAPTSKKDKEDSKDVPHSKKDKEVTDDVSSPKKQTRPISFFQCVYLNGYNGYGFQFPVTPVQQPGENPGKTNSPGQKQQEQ

Variants of: B1
Conditions: with trdn_rabit TRDN

effect of a mutation on the interaction	Variant
decreasing interaction	S96A

Variants of: B2
Conditions: with trdn_mouse Trdn

effect of a mutation on the interaction	Variant
decreasing interaction	S96A
